According to patent EP4810611A2:
Substitutions are numbered along the chain they refer to. Each block holds one binder with its values, some of them ahead of it.

How the values were obtained:
TRBV9+TRAV38 antigen [1] = experiment: BLI (OctetRed 96), antigen on AR2G sensors, antibody 126-2 nM, 1:1 model; run 2
TRBV9+TRAV26 antigen [2] = experiment: as above
TRBV9+TRAV38 antigen [3] = experiment: BLI (OctetRed 96), antigen on AR2G sensors, antibody 126-2 nM, 1:1 model; run 3
TRBV9+TRAV26 antigen [4] = experiment: as above
TRBV9+TRAV38 antigen [5] = experiment: BLI (OctetRed 96), antigen on AR2G sensors, antibody 126-2 nM, 1:1 model; run 1
TRBV9+TRAV26 antigen [6] = experiment: as above
[7] = biological target: human T cell receptor with a beta-chain of the TRBV9 family, on T lymphocytes of the mononuclear fraction of human blood (human); experiment: flow cytometry, FITC-labelled antibody on human blood mononuclear cells, 5 and 0.5 ng/µl
Sequence of human T cell receptor with a beta-chain of the TRBV9 family, on T lymphocytes of the mononuclear fraction of human blood (human) (A0A0B4J1U6 22-114): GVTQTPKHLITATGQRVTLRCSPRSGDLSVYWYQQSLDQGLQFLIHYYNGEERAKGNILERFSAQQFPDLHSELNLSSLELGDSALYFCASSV

- Kd (TRBV9+TRAV38 antigen [1]): 0.365 nM
- koff (TRBV9+TRAV38 antigen [1]): 0.000205 s⁻¹
- kon (TRBV9+TRAV38 antigen [1]): 562000 M⁻¹ s⁻¹
- Kd (TRBV9+TRAV26 antigen [2]): 0.278 nM
- koff (TRBV9+TRAV26 antigen [2]): 0.000183 s⁻¹
- kon (TRBV9+TRAV26 antigen [2]): 658000 M⁻¹ s⁻¹
- Kd (TRBV9+TRAV38 antigen [3]): 0.529 nM
- koff (TRBV9+TRAV38 antigen [3]): 0.000196 s⁻¹
- kon (TRBV9+TRAV38 antigen [3]): 371000 M⁻¹ s⁻¹
- Kd (TRBV9+TRAV26 antigen [4]): 0.204 nM
- koff (TRBV9+TRAV26 antigen [4]): 0.000114 s⁻¹
- kon (TRBV9+TRAV26 antigen [4]): 559000 M⁻¹ s⁻¹
- Kd (TRBV9+TRAV38 antigen [5]): 0.414 nM
- koff (TRBV9+TRAV38 antigen [5]): 0.000183 s⁻¹
- kon (TRBV9+TRAV38 antigen [5]): 441000 M⁻¹ s⁻¹
- Kd (TRBV9+TRAV26 antigen [6]): 0.22 nM
- koff (TRBV9+TRAV26 antigen [6]): 0.000113 s⁻¹
- kon (TRBV9+TRAV26 antigen [6]): 515000 M⁻¹ s⁻¹
B1: anti-TRBV9-1 monoclonal antibody (antibody, human IgG1, kappa, V domains shown)
VH: QIQLVQSGPELREPGESVKLSCKASGYTFTDYLVHWVKQAPGKGLKWMGWINTYTGTPTYADDFEGRFVFSLEASASTANLQISNLKNEDTATYFCARSWRRGLRGLGFDYWGQGVFVTVSS
VL: DVQMTQSPYNLAASPGESVSINCKASKSINKYLAWYQQKPGKPNKLLIYDGSTLQSGIPSRFSGSGSGTDFTLTIRGLEPEDFGLYYCQQHNEYPPTFGAGTKLELKR

- Kd (TRBV9+TRAV38 antigen [1]): < 0.001 nM
- koff (TRBV9+TRAV38 antigen [1]): < 1e-07 s⁻¹
- kon (TRBV9+TRAV38 antigen [1]): 476000 M⁻¹ s⁻¹
- Kd (TRBV9+TRAV26 antigen [2]): < 0.001 nM
- koff (TRBV9+TRAV26 antigen [2]): < 1e-07 s⁻¹
- kon (TRBV9+TRAV26 antigen [2]): 579000 M⁻¹ s⁻¹
- Kd (TRBV9+TRAV38 antigen [5]): < 0.001 nM
- koff (TRBV9+TRAV38 antigen [5]): < 1e-07 s⁻¹
- kon (TRBV9+TRAV38 antigen [5]): 713000 M⁻¹ s⁻¹
- Kd (TRBV9+TRAV26 antigen [6]): < 0.001 nM
- koff (TRBV9+TRAV26 antigen [6]): < 1e-07 s⁻¹
- kon (TRBV9+TRAV26 antigen [6]): 865000 M⁻¹ s⁻¹
B2: anti-TRBV9-4 monoclonal antibody (antibody, human IgG1, kappa, V domains shown)
VH: B1 VH with L104I, L107I
VL: B1 VL

- Kd (TRBV9+TRAV38 antigen [1]): < 0.001 nM
- koff (TRBV9+TRAV38 antigen [1]): < 1e-07 s⁻¹
- kon (TRBV9+TRAV38 antigen [1]): 289000 M⁻¹ s⁻¹
- Kd (TRBV9+TRAV26 antigen [2]): < 0.001 nM
- koff (TRBV9+TRAV26 antigen [2]): < 1e-07 s⁻¹
- kon (TRBV9+TRAV26 antigen [2]): 381000 M⁻¹ s⁻¹
- staining, share of the CD3-positive fraction [7]: 2.9%
- Kd (TRBV9+TRAV38 antigen [5]): < 0.001 nM
- koff (TRBV9+TRAV38 antigen [5]): < 1e-07 s⁻¹
- kon (TRBV9+TRAV38 antigen [5]): 397000 M⁻¹ s⁻¹
- Kd (TRBV9+TRAV26 antigen [6]): 0.0135 nM
- koff (TRBV9+TRAV26 antigen [6]): 6.02e-06 s⁻¹
- kon (TRBV9+TRAV26 antigen [6]): 447000 M⁻¹ s⁻¹
B3: anti-TRBV9-2 monoclonal antibody (antibody, human IgG1, kappa, V domains shown)
VH: B1 VH with L107I
VL: B1 VL

- Kd (TRBV9+TRAV38 antigen [1]): 0.4 nM
- koff (TRBV9+TRAV38 antigen [1]): 9.16e-05 s⁻¹
- kon (TRBV9+TRAV38 antigen [1]): 229000 M⁻¹ s⁻¹
- Kd (TRBV9+TRAV26 antigen [2]): 0.582 nM
- koff (TRBV9+TRAV26 antigen [2]): 9.8e-05 s⁻¹
- kon (TRBV9+TRAV26 antigen [2]): 168000 M⁻¹ s⁻¹
- Kd (TRBV9+TRAV38 antigen [5]): 0.311 nM
- koff (TRBV9+TRAV38 antigen [5]): 9.61e-05 s⁻¹
- kon (TRBV9+TRAV38 antigen [5]): 309000 M⁻¹ s⁻¹
- Kd (TRBV9+TRAV26 antigen [6]): 0.319 nM
- koff (TRBV9+TRAV26 antigen [6]): 9.16e-05 s⁻¹
- kon (TRBV9+TRAV26 antigen [6]): 287000 M⁻¹ s⁻¹
B4: anti-TRBV9-3 monoclonal antibody (antibody, human IgG1, kappa, V domains shown)
VH: B1 VH with L104I
VL: B1 VL
